Among the data in PMC4075990 are Km, kcat and kcat/Km values, retold here.

Substrate in data set [1]: N#Cc1cn([C@@H]2O[C@H](CO)[C@@H](O)[C@H]2O)c2ncnc(N)c12
The experiment in a line: purified protein. The settings on record: 0.05 M potassium phosphate pH 6.5, 10 nM enzyme, 0.1-2.5 mM substrate.

Substrate in data set [2]: N#Cc1cccnc1
The experiment in a line: purified protein. The note with it: 0.05 M potassium phosphate pH 6.5, 10 nM enzyme, 0.05-0.75 M substrate.

B1: ToyJKL (toyocamycin nitrile hydratase, TNHase) (Streptomyces rimosus) (protein)
chain 1: MSTEHVSLPIAARVRRLEERVIAAGLVTDEQLDTILEHNLSRATPFNGARLVARAWTSPDFRDLLLGEPAAALREMGLDGLLADDEHLRVVANTPTVHNVVVCTLCSCYPVLLLGPSPSWYKSDAYRARVVREPRAVLAEFGTVLPAEVDVRVWDASAEARYMVLPRRPAGTEGLDEEGLAARVTRAGLIGTAPV
chain 2: MGERRFSVGDPVRVRPADPPHHTRVPRYVRGHLGHVVTVQPPCPLPDDVARRRDPFRVLPVYTVRFAARDLWGSGTHLVLIDLWECYLEPAAETARGLGGETS
chain 3: MARLNDIGGTFGYGSIPMDGAEPPHPWRHDWEARVFAVLIGLAMAGVWTASELRDAEERVPPNDYLAASYYERVLMGMELLLDEKGIPSRG
B1: in “purified protein [1]”, the Km (usually the concentration of substrate that gives half-maximal velocity) was 2.8 × 10^–2 ± 1 × 10^–3 mM; the kcat (commonly the number of substrate molecules converted per active site and unit of time at saturation) came out at 159 ± 2 s⁻¹; the kcat/Km (commonly the turnover number divided by the Michaelis constant) turned out to be 5.7e+06 M⁻¹ s⁻¹. Further, in “purified protein [2]”, the Km turned out to be 99 ± 2 mM, the kcat came to 79 ± 5 s⁻¹ and the kcat/Km was 800 M⁻¹ s⁻¹.
